# Source: the supplement of paper PMC10724198
# ± gives the standard deviation of the averaged measurements.
# Tested on: Saccharomyces cerevisiae
# Experiment: protein stability index of tFT-peptide fusion (C-terminal peptide) (PSI (0-1 scale)); higher = more stable (slower turnover)
# Conditions: genetic background: das1 deletion; temperature: 30 C
# Description: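 MPS profiling in S. cerevisiae of the tFT-X12 degron library: putative degron peptides plus stable controls, 12 aa, fused to the C-terminus of a sfGFP-mCherry timer. Cells are FACS-sorted into 8 mCherry/sfGFP bins and deep-sequenced. PSI runs from 0 (unstable) to 1 (stable). Backgrounds are wild type, das1Δ and doa10Δ at 30 °C, and wild type, das1Δ, cdc34-1 and cdc53-1 at 37 °C; 2-3 technical replicates each.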
# 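Note: PSI is a weighted mean of sequencing reads over stability bins, variants kept only with over 10 reads, mCherry proximal and sfGFP distal, peptide attached via GGGS linker.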
row,Sequence,protein stability index
1,FPWGRIFLRLRT,0.47 ± 0.042
2,FQFTLWRTLLCS,0.218 ± 0.026
3,FQLGLVFCVCSG,0.258 ± 0.041
4,FQWILYIAKRVV,0.473 ± 0.036
5,FRCPHAVKLVLV,0.328 ± 0.037
6,FRFSSLLYILLS,0.316 ± 0.017
7,FRTTGQAPPSKP,0.633 ± 0.013
8,FSLRLFLVLALS,0.261 ± 0.021
9,FSVTTLTILCLR,0.273 ± 0.029
10,FSYLSFLPSLAA,0.466 ± 0.031
11,FTFPLPPSLLLV,0.322 ± 0.021
12,FTGLCQGLWLGW,0.658 ± 0.059
13,FVCLCGFLQVLS,0.395 ± 0.036
14,FVLWWGWSWLVV,0.173 ± 0.027
15,FVRVFLRLGVVS,0.194 ± 0.035
16,FVSVWVFLVSSF,0.248 ± 0.032
17,FVVQSLNQMRLN,0.656 ± 0.035
18,FVYFLLVVCFAF,0.184 ± 0.028
19,FWESHVLPYRLL,0.644 ± 0.014
20,FWFLWAKMLLSC,0.252 ± 0.032
21,FWWVGCGWCRWG,0.602 ± 0.036
22,FYPFHVFCLLIF,0.254 ± 0.017
23,GAICCFCCYLVF,0.505 ± 0.028
24,GALWPGALRFLN,0.671 ± 0.023
25,GCLGYTLSCFTY,0.525 ± 0.051
26,GCVVLNTVAFIC,0.448 ± 0.025

row,Sequence,protein stability index
1,GELDVRKLLKYF,0.669 ± 0.011
2,GFAFFIGLSFAF,0.459 ± 0.025
3,GFFCVWSLLFFN,0.262 ± 0.045
4,GFFLCTCIRFWV,0.386 ± 0.027
5,GFLRTVHFLLLG,0.575 ± 0.012
6,GFNIFFFFFFFV,0.202 ± 0.02
7,GFPFLCSFLLAS,0.298 ± 0.04
8,GFPFLFILYFLC,0.224 ± 0.02
9,GGGAGVVWVRLG,0.642 ± 0.0084
10,GGGVGGAVVLFW,0.527 ± 0.016
11,GGGWCVWMVWFG,0.411 ± 0.03
12,GGIRLRVRFFVI,0.53 ± 0.026
13,GGSGGVSWRRVV,0.654 ± 0.011
14,GGSIKRFVILVL,0.3 ± 0.044
15,GGSKIGFTVGGG,0.645 ± 0.013
16,GGTGGAGSRGQI,0.6181 ± 0.0046
17,GGWFFWVGAWVV,0.202 ± 0.026
18,GGWRVLHAWVAV,0.546 ± 0.019
19,GGYIINRWRTKN,0.622 ± 0.016
20,GILPIYNIISRL,0.842 ± 0.054
21,GITSFFSWSFLS,0.682 ± 0.064
22,GKWFSWNAIWIR,0.101 ± 0.025
23,GLCGVCLVRCVG,0.275 ± 0.031
24,GLGMVIIGLLIG,0.224 ± 0.032
25,GLLGRCPVVVFG,0.273 ± 0.04
26,GLRFFVSSLLCR,0.389 ± 0.036

row,Sequence,protein stability index
1,GLVCPWLIVRFV,0.372 ± 0.036
2,GLVWSKCFFIVG,0.547 ± 0.014
3,GLWLRVCIVAWV,0.0686 ± 0.031
4,GLYLVFMGFVPC,0.33 ± 0.053
5,GNIHHTRFLALL,0.7472 ± 0.0026
6,GNSAGSVGGGRF,0.627 ± 0.012
7,GPILVWVMADWG,0.328 ± 0.036
8,GPVRTEFWLYVW,0.55 ± 0.041
9,GQRIKWGPIYLT,0.366 ± 0.028
10,GREGETGSKAGR,0.64 ± 0.024
11,GRGGLRVVVWLV,0.496 ± 0.024
12,GRGLGHWWTVRT,0.698 ± 0.017
13,GRVAIFTLLWRI,0.256 ± 0.063
14,GSLHWVMVFAVP,0.491 ± 0.025
15,GSVCVVCWELVV,0.344 ± 0.029
16,GSVGFICCVVVV,0.332 ± 0.03
17,GTETWVFVLLKF,0.169 ± 0.036
18,GVFFHFFFLFCF,0.324 ± 0.018
19,GVSRRWFSLRCI,0.612 ± 0.029
20,GVVCCVVVGRMG,0.474 ± 0.024
21,GVVRKLCHWVVA,0.362 ± 0.027
22,GWVQFVKAAVLF,0.59 ± 0.031
23,GYACSIFYLRCV,0.496 ± 0.03
24,GYRFSILSILRV,0.513 ± 0.024
25,HANPGTFGPCTR,0.645 ± 0.012
26,HGVYSVLRFFFC,0.659 ± 0.011

# Same assay, conditions: genetic background: das1 deletion; temperature: 37 C
row,Sequence,protein stability index
1,FPWGRIFLRLRT,0.565 ± 0.01
2,FQFTLWRTLLCS,0.3394 ± 0.0027
3,FQLGLVFCVCSG,0.469 ± 0.0075
4,FQWILYIAKRVV,0.603 ± 0.0069
5,FRCPHAVKLVLV,0.471 ± 0.011
6,FRFSSLLYILLS,0.402 ± 0.016
7,FRTTGQAPPSKP,0.727 ± 0.022
8,FSLRLFLVLALS,0.395 ± 0.012
9,FSVTTLTILCLR,0.394 ± 0.017
10,FSYLSFLPSLAA,0.599 ± 0.017
11,FTFPLPPSLLLV,0.456 ± 0.011
12,FTGLCQGLWLGW,0.775 ± 0.02
13,FVCLCGFLQVLS,0.632 ± 0.04
14,FVLWWGWSWLVV,0.318 ± 0.0055
15,FVRVFLRLGVVS,0.302 ± 0.019
16,FVSVWVFLVSSF,0.457 ± 0.014
17,FVVQSLNQMRLN,0.718 ± 0.019
18,FVYFLLVVCFAF,0.274 ± 0.0017
19,FWESHVLPYRLL,0.7799 ± 0.0022
20,FWFLWAKMLLSC,0.377 ± 0.0081
21,FWWVGCGWCRWG,0.708 ± 0.011
22,FYPFHVFCLLIF,0.361 ± 0.012
23,GAICCFCCYLVF,0.626 ± 0.035
24,GALWPGALRFLN,0.81 ± 0.022
25,GCLGYTLSCFTY,0.626 ± 0.0015
26,GCVVLNTVAFIC,0.625 ± 0.0075

row,Sequence,protein stability index
1,GELDVRKLLKYF,0.768 ± 0.019
2,GFAFFIGLSFAF,0.5794 ± 0.0051
3,GFFCVWSLLFFN,0.449 ± 0.018
4,GFFLCTCIRFWV,0.544 ± 0.01
5,GFLRTVHFLLLG,0.721 ± 0.037
6,GFNIFFFFFFFV,0.297 ± 0.019
7,GFPFLCSFLLAS,0.472 ± 0.011
8,GFPFLFILYFLC,0.385 ± 0.0061
9,GGGAGVVWVRLG,0.7415 ± 0.0037
10,GGGVGGAVVLFW,0.718 ± 0.0021
11,GGGWCVWMVWFG,0.595 ± 0.011
12,GGIRLRVRFFVI,0.6152 ± 0.0058
13,GGSGGVSWRRVV,0.725 ± 0.01
14,GGSIKRFVILVL,0.525 ± 0.017
15,GGSKIGFTVGGG,0.738 ± 0.013
16,GGTGGAGSRGQI,0.724 ± 0.02
17,GGWFFWVGAWVV,0.3957 ± 0.0013
18,GGWRVLHAWVAV,0.6866 ± 0.00041
19,GGYIINRWRTKN,0.724 ± 0.052
20,GILPIYNIISRL,0.891 ± 0.013
21,GITSFFSWSFLS,0.782 ± 0.055
22,GKWFSWNAIWIR,0.1 ± 0.02
23,GLCGVCLVRCVG,0.478 ± 0.0052
24,GLGMVIIGLLIG,0.432 ± 0.042
25,GLLGRCPVVVFG,0.49774 ± 0.00049
26,GLRFFVSSLLCR,0.5651 ± 0.0036

row,Sequence,protein stability index
1,GLVCPWLIVRFV,0.5 ± 0.0067
2,GLVWSKCFFIVG,0.7105 ± 0.0018
3,GLWLRVCIVAWV,0.19 ± 0.0034
4,GLYLVFMGFVPC,0.575 ± 0.032
5,GNIHHTRFLALL,0.835 ± 0.012
6,GNSAGSVGGGRF,0.7387 ± 0.0012
7,GPILVWVMADWG,0.5493 ± 0.00096
8,GPVRTEFWLYVW,0.655 ± 0.011
9,GQRIKWGPIYLT,0.444 ± 0.013
10,GREGETGSKAGR,0.7282 ± 0.003
11,GRGGLRVVVWLV,0.6652 ± 0.0041
12,GRGLGHWWTVRT,0.741 ± 0.015
13,GRVAIFTLLWRI,0.362 ± 0.01
14,GSLHWVMVFAVP,0.6582 ± 0.0047
15,GSVCVVCWELVV,0.5561 ± 0.0013
16,GSVGFICCVVVV,0.515 ± 0.0078
17,GTETWVFVLLKF,0.224 ± 0.019
18,GVFFHFFFLFCF,0.447 ± 0.0093
19,GVSRRWFSLRCI,0.75 ± 0.013
20,GVVCCVVVGRMG,0.665 ± 0.018
21,GVVRKLCHWVVA,0.525 ± 0.0015
22,GWVQFVKAAVLF,0.73964 ± 3.5e-06
23,GYACSIFYLRCV,0.6266 ± 0.00063
24,GYRFSILSILRV,0.627 ± 0.012
25,HANPGTFGPCTR,0.72 ± 0.0081
26,HGVYSVLRFFFC,0.671 ± 0.03
